One data set deals with HPPD polypeptides. Description: coupled HPPD activity assay: turnover and residual turnover in crude extracts. The class given is biochemical, Pseudomonas fluorescens. Particulars: for Turnover: absence of Cmpd. 1, kinetic changes in absorbance (OD) at 320 nm, 30 min; for Turnover / Residual turnover: high substrate concentration; for Residual turnover: presence of 100 μM Cmpd. 1, changes in absorbance (OD) at 320 nm; for Residual turnover [%]: 100 μM Cmpd. 1, signal change with inhibitor divided by signal change without inhibitor.

In the next data set the test system is T0 soybean plants. Description: greenhouse spray test, leaf area damage score. It counts as in vivo. The source says:
Tolerant green shoots were transferred to rooting media or grafted. Rooted plantlets were transferred to the greenhouse after an acclimation period. Plants containing the transgene were then sprayed with HPPD inhibitor herbicides, as for example with mesotrione at a rate of 300-600 g AI/ha, or with Cmpd. 1 (2-chloro-3-(methylsulfanyl)-N-(1-methyl-1H-tetrazol-5-yl)-4-(trifluoromethyl)-benzamide) at a rate of 150 g-300 g AI/ha supplemented with ammonium sulfate and methyl ester rapeseed oil. Five to ten days after the application, the symptoms due to the application of the herbicide were evaluated and compared to the symptoms observed on wild-type plants under the same conditions. For example, T0 soybean plants having a “plant expression cassette”, which includes an HPPD inhibitor tolerant HPPD polypeptide of the present invention, were tested towards the tolerance of Cmpd. 1. Prior greenhouse trials with the transgenic plants, soybean transformants were routinely analyzed for the expression and presence of the transgenes using the ELISA protein detection method (see detailed description under item D and H). Only plants recovering in the selection media and having a detectable HPPD transgene protein expression were used for the herbicide tolerance analysis. A DeVries Tracker Sprayer was calibrated prior to each spraying. The chemical formulation used for Cmpd. 1 was supplemented with ammonium sulfate and methylated rape seed oil. Spray tests were conducted with a concentration, which equals to 300 grams AI per hectare (300 g AI/ha).
In greenhouse trials, independent T0 soybean events containing an exemplary mutant HPPD polypeptide were sprayed with the HPPD inhibitor herbicide Cmpd. 1 (2-chloro-3-(methylsulfanyl)-N-(1-methyl-1H-tetrazol-5-yl)-4-(trifluoromethyl)benzamide) at the rate of 300 grams AI/ha, supplemented with ammonium sulfate and methyl ester rapeseed oil. Five days after the application, the leaf damaged area due to the HPPD inhibitor herbicide is scored in a scale from 0 (no damage) to 100 (complete bleaching). Under those conditions, the wild-type plants were completely bleached and their damage scores were in the 95-100 range.
Table 5 presents the distribution of the HPPD inhibitor herbicide damage score data as percentile for exemplary mutant HPPD inhibitor herbicide tolerant polypeptides (SEQ ID NOs). The percentiles normalize ranks of the damage score from an individual plant in a population. […] The median is the 50th percentile. Half the values had higher damage scores; half had lower damage scores. The value of the 75th and 90th percentile is the damage score where 75% and 90% of the soybean events had lower damage scores, respectively. The difference between the 75th and 25th percentile is called the interquartile range and a marker to quantify scattering in the population. All constructs had only one single cassette insertion in the soybean genome.

Setting [1] is: transgenic soybean T0 events, five days after Cmpd. 1 at 300 g AI/ha, scale 0-100.

Numbering of substitutions follows the chain as printed.

We go through 24 molecules from US11180770B2, “HPPD variants and methods of use” (BASF Agricultural Solutions Seed US LLC, priority 2017, dated 2021).

Regarding `CSc1c(C(F)(F)F)ccc(C(=O)Nc2nnnn2C)c1Cl` [Cmpd. 1, 2-chloro-3-(methylsulfanyl)-N-(1-methyl-1H-tetrazol-5-yl)-4-(trifluoromethyl)benzamide, reference compound], in the data set with HPPD polypeptides, the Turnover turned out to be 0.203 and the Residual turnover turned out to be 0.021. In addition, the “leaf damage score of wild-type plants” value with T0 soybean plants (wild-type soybean plants, 300 grams AI/ha, five days after application, scale 0-100) is 95-100.

B1: 24 (protein)
chain: MADLYENPMGLMGFEFIEFASPTPGTLEPIFEIMGFTKVATHRSKNVHLYRQGEINLILNNEPNSIASYFAAEHGPSVCGMAFRVKDSQKAYNRALELGAQPIHIDTGPMELNLPAIKGIGGAPLYLIDRFGEGSSIYDIDFVYLEGVERNPVGAGLKVIDHLTHNVYRGRMVYWANFYEKLFNFREARYFDIKGEYTGLTSKAMSAPDGMIRIPLNEESSKGAGQIEEFLMQFNGEGIQHVAFLTDDLVKTWDALKKIGMRFMTAPADTYYEMLEGRLPDHGEPVDQLQARGILLDGSSVEGDKRLLLQIFSETLMGPVFFEFIQRKGDDGFGPHSFKVLFESIERDQVRRGVLTAD
modifications: mutant HPPD polypeptide
Consider B1, for which, in the data set on HPPD polypeptides, the “Residual turnover [%]” value came out at 39%, the Turnover is given as 0.271 and the Residual turnover is 0.105.

B2: 39 (protein)
chain: B1 chain with A268G, T270E, I345V
modifications: mutant HPPD polypeptide
With B2, in the data set with HPPD polypeptides, the “Residual turnover [%]” value was determined as 40%, the Turnover is given as 0.244 and the Residual turnover worked out at 0.097.

B3: 26 (protein)
chain: B1 chain with A268P
modifications: mutant HPPD polypeptide
B3: in the data set with HPPD polypeptides, the “Residual turnover [%]” value is given as 28%, the Turnover turned out to be 0.279 and the Residual turnover is listed as 0.077.

B4: 27 (protein)
chain: B1 chain with T270N
modifications: mutant HPPD polypeptide
In the case of B4, in the data set on HPPD polypeptides, the “Residual turnover [%]” value amounted to 38%, the Turnover was determined as 0.266 and the Residual turnover is 0.101.

B5: SEQ ID NO: 2: prior art mutant HPPD polypeptide (WO2014/043435): 335P 336W 339A 340Q (protein)
chain: B1 chain with A268P, H336W, S337N, K339A, V340Q
modifications: mutant HPPD polypeptide
notes: prior art mutant HPPD polypeptide (WO2014/043435): 335P 336W 339A 340Q
B5: the “leaf area damage score, 25th percentile” value in the data set with T0 soybean plants (transgenic soybean T0 events, five days after Cmpd. 1 at 300 g AI/ha, scale 0 (no damage) to 100 (complete bleaching)) worked out at 15.0. In the data set with T0 soybean plants (setting [1]), the “leaf area damage score, 75th percentile” value is reported as 45.0; the “leaf area damage score, 90th percentile” value is on record as 87.0; the “leaf area damage score, Median” value was found to be 20.0.

B6: 28 (protein)
chain: B1 chain with A268G, T270N
modifications: mutant HPPD polypeptide
As for B6, in the data set on HPPD polypeptides, the “Residual turnover [%]” value is listed as 43%, the Turnover is 0.204 and the Residual turnover is on record as 0.088.

B7: 30 (protein)
chain: B1 chain with I345V
modifications: mutant HPPD polypeptide
As for B7, in the data set with HPPD polypeptides, the “Residual turnover [%]” value was 48%, the Turnover is 0.311 and the Residual turnover amounted to 0.149.

B8: 42 (protein)
chain: B1 chain with A268S, T270E, I345V
modifications: mutant HPPD polypeptide
As for B8, in the data set with HPPD polypeptides, the “Residual turnover [%]” value amounted to 40%, the Turnover was found to be 0.278 and the Residual turnover came to 0.111.

B9: 36 (protein)
chain: B1 chain with A268R, T270N, I345V
modifications: mutant HPPD polypeptide
For B9, in the data set with HPPD polypeptides, the “Residual turnover [%]” value is reported as 61%, the Turnover was found to be 0.108 and the Residual turnover was 0.066.

B10: 32 (protein)
chain: B1 chain with A268P, I345V
modifications: mutant HPPD polypeptide
With B10, in the data set with HPPD polypeptides, the “Residual turnover [%]” value is 39%, the Turnover stood at 0.326 and the Residual turnover is reported as 0.128.

B11: 40 (protein)
chain: B1 chain with A268G, T270E, H336D, I345V
modifications: mutant HPPD polypeptide
For B11, in the data set on HPPD polypeptides, the “Residual turnover [%]” value is recorded as 54%, the Turnover came out at 0.134 and the Residual turnover is 0.073.

B12: 38 (protein)
chain: B1 chain with T270E, I345V
modifications: mutant HPPD polypeptide
In the case of B12, in the data set on HPPD polypeptides, the “Residual turnover [%]” value is listed as 45%, the Turnover was found to be 0.286 and the Residual turnover is on record as 0.129.

B13: 34 (protein)
chain: B1 chain with A268G, T270N, I345V
modifications: mutant HPPD polypeptide
For B13, in the data set with HPPD polypeptides, the “Residual turnover [%]” value amounted to 47%, the Turnover is listed as 0.243 and the Residual turnover was found to be 0.113.

B14: 31 (protein)
chain: B1 chain with A268G, I345V
modifications: mutant HPPD polypeptide
On to B14, for which, in the data set on HPPD polypeptides, the “Residual turnover [%]” value amounted to 37%, the Turnover is recorded as 0.268 and the Residual turnover was 0.098.

B15: 37 (protein)
chain: B1 chain with A268S, T270N, I345V
modifications: mutant HPPD polypeptide
As to B15, in the data set on HPPD polypeptides, the “Residual turnover [%]” value stood at 50%, the Turnover is 0.096 and the Residual turnover came to 0.048.

B16: 25 (protein)
chain: B1 chain with A268G
modifications: mutant HPPD polypeptide
For the molecule B16, in the data set on HPPD polypeptides, the “Residual turnover [%]” value came out at 39%, the Turnover came to 0.215 and the Residual turnover was 0.083.

B17: 29 (protein)
chain: B1 chain with A268P, T270N
modifications: mutant HPPD polypeptide
Consider B17, for which, in the data set with HPPD polypeptides, the “Residual turnover [%]” value was found to be 29%, the Turnover is recorded as 0.289 and the Residual turnover is reported as 0.084.

B18: 44 (protein)
chain: B1 chain with A268G, T270E, S344Q, I345V
modifications: mutant HPPD polypeptide
In the case of B18, in the data set on HPPD polypeptides, the Turnover worked out at 0.036.

B19: 45 (protein)
chain: B1 chain with T270N, S344Q, I345V
modifications: mutant HPPD polypeptide
For the molecule B19, in the data set with HPPD polypeptides, the “Residual turnover [%]” value was determined as 57%, the Turnover is reported as 0.214 and the Residual turnover was 0.121.

B20: 41 (protein)
chain: B1 chain with A268R, T270E, I345V
modifications: mutant HPPD polypeptide
Regarding B20, in the data set on HPPD polypeptides, the “Residual turnover [%]” value is recorded as 38%, the Turnover stood at 0.280 and the Residual turnover was 0.105.

B21: 43 (protein)
chain: B1 chain with T270E, S344Q, I345V
modifications: mutant HPPD polypeptide
With B21, in the data set with HPPD polypeptides, the “Residual turnover [%]” value came out at 58%, the Turnover is on record as 0.190 and the Residual turnover is on record as 0.110.

B22: 35 (protein)
chain: B1 chain with A268P, T270N, I345V
modifications: mutant HPPD polypeptide
Take B22: in the data set with HPPD polypeptides, the Turnover is recorded as 0.036 and the Residual turnover was 0.023.

B23: 33 (protein)
chain: B1 chain with T270N, I345V
modifications: mutant HPPD polypeptide
For the molecule B23, in the data set on HPPD polypeptides, the “Residual turnover [%]” value is 46%, the Turnover came out at 0.189 and the Residual turnover was found to be 0.087.
